Experimental data published in the supplement of paper PMC7125110.
± gives the standard error. Variants at the floor of the assay were thinned out.

B1: glmS ribozyme (parent)
chain: AUAAAAGCGCCAGAACUACAGAAAUGUAGUUGACGAGGAGGAGGUUUAUCGAAUUUUCGGCGGAUGCCUCCAAA

Variants of: B1
Assay: self-cleavage kobs at 2500 uM GlcN6P; higher = faster cleavage; RNA array
Settings: with glucosamine-6-phosphate
Outline: (§1)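 Weighted Michaelis–Menten fits across concentrations supplied kcat and KM, based on kobs from one- or two-exponential decay fits to normalised per-tile medians. The data came from barcoded ribozyme variants transcribed in situ by E. coli RNA polymerase on sequenced MiSeq chips and tracked at 37 °C by a hybridised Cy3 probe. Glucosamine-6-phosphate (40 μM to 10 mM) in HEPES/KCl/Mg(OAc)2 buffer was flowed in.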

Variant | self-cleavage kobs at 2500 uM GlcN6P
G9C U49A U54A C67A | < 1e-05 s⁻¹
G9U A14G C61A A64G C70G | 6.76e-05 ± 2.1e-05 s⁻¹
C8G G13U A39U C68G | < 1e-05 s⁻¹
A12C G38C C71U | < 1e-05 s⁻¹
G9C U45A | < 1e-05 s⁻¹
C11U A52C C68U C71G | 0.0003 ± 0.00014 s⁻¹
C10U C58A C71U | < 1e-05 s⁻¹
G13A G44U U45A U57A U69C | < 1e-05 s⁻¹
G9U G63C G66U C70A | < 1e-05 s⁻¹
A12G C16U G43A U45C | < 1e-05 s⁻¹
C8G A39U C71A | < 1e-05 s⁻¹
C10A C16U A64U | < 1e-05 s⁻¹
A12G A64U C67G | < 1e-05 s⁻¹
G9A A12G U54A C58G C61G C70U | 0.000354 ± 0.00012 s⁻¹
G9A C10U U31C G44A | < 1e-05 s⁻¹
C10G U46G U55A A64C U69G | < 1e-05 s⁻¹
A12C C16U U31G G41U G43U | < 1e-05 s⁻¹
C8U C11U A39C G51A G62C | < 1e-05 s⁻¹
C10G G40C G59U | < 1e-05 s⁻¹
C8A G41C C58U | < 1e-05 s⁻¹
A12U G29U U30A U31A | 0.000126 ± 4.8e-05 s⁻¹
C10A G29A A33G A48U | < 1e-05 s⁻¹
G9C C11A G44U G63A C67U | < 1e-05 s⁻¹

Variant | self-cleavage kobs at 2500 uM GlcN6P
C10U G40A G44C C70A | < 1e-05 s⁻¹
A12C U31C U56C | 0.000204 ± 6.7e-05 s⁻¹
C10G A14U G35U G60C | < 1e-05 s⁻¹
C11U A12C G32A G41A C68A | < 1e-05 s⁻¹
C10U A12C G66A | 3.37e-05 ± 1.5e-05 s⁻¹
C11G U47A C50G C70G | 0.000352 ± 8.9e-05 s⁻¹
G9A G40U G63A A64U | < 1e-05 s⁻¹
C8U A12C A15C A33C U45G C50G | < 1e-05 s⁻¹
G13A U49C C50U | < 1e-05 s⁻¹
C10G C34A A52U | < 1e-05 s⁻¹
G9A G29C G35A G44U U46A A64C | < 1e-05 s⁻¹
C10G G43A A52G A53C C70U | < 1e-05 s⁻¹
C8A G59C C67G | < 1e-05 s⁻¹
C8G A14G G32U A64U | < 1e-05 s⁻¹
C11U U46A G62A | < 1e-05 s⁻¹
C11U U46A G62U | < 1e-05 s⁻¹
C11A G35U C58G | < 1e-05 s⁻¹
C11G G35C U49G | < 1e-05 s⁻¹
C8A G13C U46G U56A U69C C70G | < 1e-05 s⁻¹
G9A G13U U57C | < 1e-05 s⁻¹
A12U C34A A48U | < 1e-05 s⁻¹
G9U U31C G43C C67U | < 1e-05 s⁻¹
A12C C50G C70A | 0.000246 ± 5.7e-05 s⁻¹

Variant | self-cleavage kobs at 2500 uM GlcN6P
C10U G35C G38A A52C G62U | < 1e-05 s⁻¹
A12G G21U U47G U65A | 6.16e-05 ± 1.7e-05 s⁻¹
C8G A52G U55G C67G C68U | 5.08e-05 ± 1.6e-05 s⁻¹
C11A C16U A23C A39G U54C C58U | < 1e-05 s⁻¹
G9A C61A A64U C67A | < 1e-05 s⁻¹
C10U A36C G40U G59U C67G | < 1e-05 s⁻¹
C8G A36C A53C | < 1e-05 s⁻¹
C11G G51A A64C | < 1e-05 s⁻¹
C10G G41A | < 1e-05 s⁻¹
C11G U55A C61A U69A C71G | 0.000284 ± 8.5e-05 s⁻¹
C10A G35U A48C | < 1e-05 s⁻¹
G9C A15G U45G | < 1e-05 s⁻¹
C11U G13C U46G A64U | < 1e-05 s⁻¹
A12U G38U U49A | < 1e-05 s⁻¹
G9C C67A C70G | < 1e-05 s⁻¹
A12C G44C U65C | < 1e-05 s⁻¹
A12U A33U G40U | 3.71e-05 ± 1.4e-05 s⁻¹
C8G A36G G38A A52G U65G U69G | 5.4e-05 ± 1.8e-05 s⁻¹
C10U C11A G41A U55C C58G | < 1e-05 s⁻¹
G9A A14G G41U | < 1e-05 s⁻¹
C11A U56A C67G | 5.5e-05 ± 1.8e-05 s⁻¹
C10A A36C C50G | 0.000367 ± 0.00015 s⁻¹
C10U C11U G13C A42U U54A | < 1e-05 s⁻¹

Variant | self-cleavage kobs at 2500 uM GlcN6P
A12C U45A C67G | 0.000527 ± 0.00016 s⁻¹
C11G G13C C50A A53G U55A | < 1e-05 s⁻¹
A12G A15U G37U A42G U55A | < 1e-05 s⁻¹
G9U G40A G60U | < 1e-05 s⁻¹
G13C A15U G41U A42G G43C | < 1e-05 s⁻¹
C8U C16G G29C | < 1e-05 s⁻¹
G13A U30A C58A | 0.000138 ± 3.4e-05 s⁻¹
C8U C11U U30A A52C U69G | < 1e-05 s⁻¹
C10U A33G A39G G41C C67U | < 1e-05 s⁻¹
A12G U54C U65G | 3.01e-05 ± 1.2e-05 s⁻¹
C10G A39G G66A C67U C71G | 7e-05 ± 3.1e-05 s⁻¹
C8A G13U U56G A64G | < 1e-05 s⁻¹
C11U A15G G43A C67G | 0.000114 ± 3.9e-05 s⁻¹
C11U G60A G62U C67G | < 1e-05 s⁻¹
A12U U31C U57G | 5.17e-05 ± 1.8e-05 s⁻¹
A12U U30A G37A G59U | < 1e-05 s⁻¹
A12U A33G G38U G44U G59A | < 1e-05 s⁻¹
A12G G51U U56G | < 1e-05 s⁻¹
A12U U65G C70A | 6.44e-05 ± 2.6e-05 s⁻¹
C11A C34G A36U G40A A52G A53U | < 1e-05 s⁻¹
C10U C11U A36C A42U A48C | < 1e-05 s⁻¹
C10G G35A G66A | < 1e-05 s⁻¹
A12U A15U C50A G51A G59C | < 1e-05 s⁻¹

Variant | self-cleavage kobs at 2500 uM GlcN6P
G9U A15C G32C | < 1e-05 s⁻¹
A12G C16U G29A G40A A42U U45G | 8.49e-05 ± 2.3e-05 s⁻¹
A12G U56G G66A | 0.000134 ± 2.5e-05 s⁻¹
G9C A42U G44U | < 1e-05 s⁻¹
G13C C34A C67U | < 1e-05 s⁻¹
C11U G29U C67G | 0.000197 ± 6.6e-05 s⁻¹
C11A G32A G43C U46A C50A G60A | < 1e-05 s⁻¹
A12U U31G C58G | 7.42e-05 ± 2.7e-05 s⁻¹
C8U G9A U45A U69C | < 1e-05 s⁻¹
C8U G60U C70G | < 1e-05 s⁻¹
C8U G51U U57C C58A | < 1e-05 s⁻¹
C10U G35C G51U U56G G62U | < 1e-05 s⁻¹
C10G A12G U47G U54C C68U | < 1e-05 s⁻¹
C11U U31A G32A G38A C70G | 7.58e-05 ± 2.6e-05 s⁻¹
C11G U46G G59C U65G | 0.000186 ± 8.3e-05 s⁻¹
C11U C16G C70G | 5.75e-05 ± 2.7e-05 s⁻¹
G13A G35A A42U | < 1e-05 s⁻¹
C8U G37U G62U A64U | < 1e-05 s⁻¹
C11G G37U A53C | < 1e-05 s⁻¹
C8G G35A G43C U69G | < 1e-05 s⁻¹
G9U A12C U30C | < 1e-05 s⁻¹
G9C A14U G29C | < 1e-05 s⁻¹
G9A A14C A15G G35C A39G A52C A53G | < 1e-05 s⁻¹

Variant | self-cleavage kobs at 2500 uM GlcN6P
C10G A14U G32U C61A G63A | < 1e-05 s⁻¹
A12C A15U U46A C71A | < 1e-05 s⁻¹
C11U C16A G44U G60A | < 1e-05 s⁻¹
C8U U31A G43U U55A | < 1e-05 s⁻¹
A12G G43U A48C U69G | < 1e-05 s⁻¹
G9C G32C C70A | < 1e-05 s⁻¹
C11U C34G A52U | < 1e-05 s⁻¹
G9C A48C G51C | < 1e-05 s⁻¹
G13A A33C C70U | < 1e-05 s⁻¹
A12U A33U G37U U56A | < 1e-05 s⁻¹
C11U G44U C67G | 0.00425 ± 0.0019 s⁻¹
C10U A33U G41U U49C G62C | < 1e-05 s⁻¹
C11U U30A G37C U49A | < 1e-05 s⁻¹
G9U A14U A42C | < 1e-05 s⁻¹
C10U U31G U49A G62U | < 1e-05 s⁻¹
C11U A15G G37C U47C U69G | 0.000136 ± 5.1e-05 s⁻¹
C8A G35U A52U | < 1e-05 s⁻¹
G13A C50A U69A | 3.87e-05 ± 1.8e-05 s⁻¹
G9A G51U U56G G63C | < 1e-05 s⁻¹
C8U C34U G41U | < 1e-05 s⁻¹
A12G C34U A52U | < 1e-05 s⁻¹
A12C G13A A14G U31G | 7.54e-05 ± 3e-05 s⁻¹
A12C A48G C58G | 4.08e-05 ± 1.8e-05 s⁻¹

Variant | self-cleavage kobs at 2500 uM GlcN6P
G13C A33C U47C A64U C70A | < 1e-05 s⁻¹
C11U A15G G29U | < 1e-05 s⁻¹
C8G G32A U54G | < 1e-05 s⁻¹
A12C A14G U69G | 0.000112 ± 3.2e-05 s⁻¹
C10A G62C C68A | 0.00024 ± 0.00011 s⁻¹
C11U A15C A48G U55A | < 1e-05 s⁻¹
C11U A15U G41C | < 1e-05 s⁻¹
C11A G29U A33C G63C | < 1e-05 s⁻¹
C10U U45A | 2.72e-05 ± 1.3e-05 s⁻¹
G9C C11A G63C | < 1e-05 s⁻¹
A12U A48U C70G | 0.000115 ± 5e-05 s⁻¹
A12C A14U U31C U56G | 0.0134 ± 0.0063 s⁻¹
C11U A14G A33G C68A C71A | 0.000684 ± 0.00034 s⁻¹
C11G G40A A53U | < 1e-05 s⁻¹
C8G A14U A39G | < 1e-05 s⁻¹
A12U A48U C58U | < 1e-05 s⁻¹
C11G G13U G29C | < 1e-05 s⁻¹
C11U C34G U54C | < 1e-05 s⁻¹
C10U G29U C61A C67G | 0.000121 ± 2.9e-05 s⁻¹
C8U A14U G32U G41C C67U | < 1e-05 s⁻¹
C11G G35A C61A | < 1e-05 s⁻¹
A12U G62C C70G | < 1e-05 s⁻¹

Variants of: B1
Assay: self-cleavage kobs at 10000 uM GlcN6P; higher = faster cleavage; RNA array
Settings: with glucosamine-6-phosphate
Outline: as §1

Variant | self-cleavage kobs at 10000 uM GlcN6P
A12G A64U C67G | < 1e-05 s⁻¹
A12U G29U U30A U31A | 0.000361 ± 0.00013 s⁻¹
C10G C34A A52U | < 1e-05 s⁻¹
C11G G35C U49G | < 1e-05 s⁻¹
G9A G13U U57C | < 1e-05 s⁻¹
C8G A52G U55G C67G C68U | 3.18e-05 ± 1.4e-05 s⁻¹
C10U A36C G40U G59U C67G | < 1e-05 s⁻¹
C8G A36C A53C | < 1e-05 s⁻¹
C11U G13C U46G A64U | < 1e-05 s⁻¹
C10U A33G A39G G41C C67U | < 1e-05 s⁻¹
C11U A15G G43A C67G | 0.000119 ± 3.5e-05 s⁻¹
A12U U65G C70A | 0.000122 ± 2.2e-05 s⁻¹
A12G C16U G29A G40A A42U U45G | 8.82e-05 ± 1.6e-05 s⁻¹
C11U C16G C70G | 0.000142 ± 4.4e-05 s⁻¹
C11U C34G A52U | < 1e-05 s⁻¹
C10U U45A | 2.12e-05 ± 8.6e-06 s⁻¹
C8G A14U A39G | < 1e-05 s⁻¹
